According to US20240141059A1 (Bristol-Myers Squibb, published 2024):

Columns and labels:
hCD32b = target: T1, hCD32b (human, UniProt P31994 43-217); experiment: SPR, FcgR analyte on protein A captured dAb-Fc
T1 construct: also called FcgRIIb
T1 sequence (looked up): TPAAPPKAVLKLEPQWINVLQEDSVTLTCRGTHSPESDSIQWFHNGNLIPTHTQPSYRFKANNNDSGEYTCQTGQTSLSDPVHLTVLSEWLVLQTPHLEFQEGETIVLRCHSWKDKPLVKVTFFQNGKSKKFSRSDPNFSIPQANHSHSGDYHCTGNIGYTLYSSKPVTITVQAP

hCD16b-NA2 = target: T2, hCD16b-NA2 (human, UniProt O75015 17-200, limits assumed); experiment: SPR, FcgR analyte on protein A captured dAb-Fc
T2 construct: also called FcgRIIIb-NA2
T2 sequence (O75015 17-200 N65S limits assumed): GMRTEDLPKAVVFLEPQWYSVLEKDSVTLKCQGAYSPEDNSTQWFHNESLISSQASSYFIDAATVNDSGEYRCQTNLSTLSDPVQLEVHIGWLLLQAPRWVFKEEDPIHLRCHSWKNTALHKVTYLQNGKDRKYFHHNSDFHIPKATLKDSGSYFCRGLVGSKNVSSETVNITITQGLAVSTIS

hCD32a-R131 = target: T3, hCD32a-R131 (human, UniProt P12318 34-217); experiment: SPR, FcgR analyte on protein A captured dAb-Fc
T3 construct: also called FcgRIIa-R131
T3 sequence (looked up): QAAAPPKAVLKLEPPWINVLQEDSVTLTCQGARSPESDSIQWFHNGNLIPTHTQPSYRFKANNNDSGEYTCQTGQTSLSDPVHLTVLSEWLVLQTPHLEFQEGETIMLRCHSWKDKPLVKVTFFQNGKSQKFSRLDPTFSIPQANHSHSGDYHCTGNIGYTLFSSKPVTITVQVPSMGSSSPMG

hCD32a-H131 = target: T4, hCD32a-H131 (human, UniProt P12318 34-217); experiment: SPR, FcgR analyte on protein A captured dAb-Fc
T4 construct: also called FcgRIIa-H131
T4 sequence (looked up): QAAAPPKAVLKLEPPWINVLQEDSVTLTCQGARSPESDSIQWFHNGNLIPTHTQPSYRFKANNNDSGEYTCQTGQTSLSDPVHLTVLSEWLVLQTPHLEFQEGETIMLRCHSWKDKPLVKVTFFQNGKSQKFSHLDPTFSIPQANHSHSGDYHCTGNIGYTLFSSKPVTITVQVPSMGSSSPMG

hCD16a-V158 = target: T5, hCD16a-V158 (human, UniProt P08637 17-208, limits assumed); experiment: SPR, FcgR analyte on protein A captured dAb-Fc
T5 construct: also called FcgRIIIa-V158
T5 sequence (P08637 17-208 F176V limits assumed): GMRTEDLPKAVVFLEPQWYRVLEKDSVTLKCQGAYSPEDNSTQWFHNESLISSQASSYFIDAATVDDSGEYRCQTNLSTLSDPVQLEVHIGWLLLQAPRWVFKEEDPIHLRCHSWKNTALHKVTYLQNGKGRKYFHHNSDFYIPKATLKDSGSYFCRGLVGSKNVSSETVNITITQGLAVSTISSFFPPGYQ

human GITR on cells = target: T6, human GITR on cells (human, UniProt Q9Y5U5 26-241); experiment: cell-based or functional assay
T6 sequence (looked up): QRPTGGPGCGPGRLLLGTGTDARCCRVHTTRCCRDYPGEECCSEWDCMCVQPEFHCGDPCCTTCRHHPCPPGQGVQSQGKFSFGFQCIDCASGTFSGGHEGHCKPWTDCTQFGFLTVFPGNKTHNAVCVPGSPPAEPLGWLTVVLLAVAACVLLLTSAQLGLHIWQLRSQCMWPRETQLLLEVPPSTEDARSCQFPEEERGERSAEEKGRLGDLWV

B1: 3h56-269-IgG1.1f (Fc fusion)
chain: EVQLLESGGGLVQPGGSLRLSCAASGFTFRDYEMWWVRQAPGKGLERVSAINPQGTRTYYADSVKGRFTISRDNSKNTLYLQMNSLRAEDTAVYYCAKLPFRFSDRGQGTLVTVSSASTEPKSCDKTHTCPPCPAPEAEGAPSVFLFPPKPKDTLMISRTPEVTCVVVDVSHEDPEVKFNWYVDGVEVHNAKTKPREEQYNSTYRVVSVLTVLHQDWLNGKEYKCKVSNKALPSSIEKTISKAKGQPREPQVYTLPPSREEMTKNQVSLTCLVKGFYPSDIAVEWESNGQPENNYKTTPPVLDSDGSFFLYSKLTVDKSRWQQGNVFSCSVMHEALHNHYTQKSLSLSPGK
hCD32b
  Kd: > 5 µM
hCD16b-NA2
  Kd: > 5 µM
hCD32a-R131
  Kd: > 5 µM
hCD32a-H131
  Kd: > 5 µM
hCD16a-V158
  Kd: > 5 µM

B2: anti-GITR-IgG2 (antibody)
heavy: QVQLVESGGGVVQPGRSLRLSCAASGFTFSSYGMHWVRQAPGKGLEWVAVIWYEGSNKYYADSVKGRFTISRDNSKNTLYLQMNSLRAEDTAVYYCARGGSMVRGDYYYGMDVWGQGTTVTVSSASTKGPSVFPLAPCSRSTSESTAALGCLVKDYFPEPVTVSWNSGALTSGVHTFPAVLQSSGLYSLSSVVTVPSSNFGTQTYTCNVDHKPSNTKVDKTVERKCCVECPPCPAPPVAGPSVFLFPPKPKDTLMISRTPEVTCVVVDVSHEDPEVQFNWYVDGVEVHNAKTKPREEQFNSTFRVVSVLTVVHQDWLNGKEYKCKVSNKGLPAPIEKTISKTKGQPREPQVYTLPPSREEMTKNQVSLTCLVKGFYPSDIAVEWESNGQPENNYKTTPPMLDSDGSFFLYSKLTVDKSRWQQGNVFSCSVMHEALHNHYTQKSLSLSPGK
light: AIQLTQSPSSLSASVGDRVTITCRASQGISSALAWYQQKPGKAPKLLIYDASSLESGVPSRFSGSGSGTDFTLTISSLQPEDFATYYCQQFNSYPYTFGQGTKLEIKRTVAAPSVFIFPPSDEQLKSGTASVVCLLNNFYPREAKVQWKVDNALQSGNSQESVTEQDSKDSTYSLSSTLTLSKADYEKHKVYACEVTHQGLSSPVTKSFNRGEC
Human GITR on cells
  NFKB signaling EC50: ~0.01 µM
